Our source for the FRET efficiency values is article PMC8237704.

The target of the assay is GluN1 NMDA receptor subunit, isoform GluN1-2a, with a fluorescent protein on the C-terminus (GluN1-GFP; GluN1-mCherry). Put plainly: FRET or BRET. Background: Bioluminescence resonance energy transfer reports proximity on the nanometre scale.

Substance “GluN1 NMDA receptor subunit, isoform GluN1-2a, with a fluorescent protein on the C-terminus (GluN1-GFP; GluN1-mCherry)” yielded an FRET efficiency of 5.8%.
